From patent US20250277199, “NOVEL CRISPR-CAS NUCLEASES FROM METAGENOMES” (Brain Biotech AG, published 2025)

Molecular target: T1, BMC11 (uncultured bacterium (metagenome))
T1 chain: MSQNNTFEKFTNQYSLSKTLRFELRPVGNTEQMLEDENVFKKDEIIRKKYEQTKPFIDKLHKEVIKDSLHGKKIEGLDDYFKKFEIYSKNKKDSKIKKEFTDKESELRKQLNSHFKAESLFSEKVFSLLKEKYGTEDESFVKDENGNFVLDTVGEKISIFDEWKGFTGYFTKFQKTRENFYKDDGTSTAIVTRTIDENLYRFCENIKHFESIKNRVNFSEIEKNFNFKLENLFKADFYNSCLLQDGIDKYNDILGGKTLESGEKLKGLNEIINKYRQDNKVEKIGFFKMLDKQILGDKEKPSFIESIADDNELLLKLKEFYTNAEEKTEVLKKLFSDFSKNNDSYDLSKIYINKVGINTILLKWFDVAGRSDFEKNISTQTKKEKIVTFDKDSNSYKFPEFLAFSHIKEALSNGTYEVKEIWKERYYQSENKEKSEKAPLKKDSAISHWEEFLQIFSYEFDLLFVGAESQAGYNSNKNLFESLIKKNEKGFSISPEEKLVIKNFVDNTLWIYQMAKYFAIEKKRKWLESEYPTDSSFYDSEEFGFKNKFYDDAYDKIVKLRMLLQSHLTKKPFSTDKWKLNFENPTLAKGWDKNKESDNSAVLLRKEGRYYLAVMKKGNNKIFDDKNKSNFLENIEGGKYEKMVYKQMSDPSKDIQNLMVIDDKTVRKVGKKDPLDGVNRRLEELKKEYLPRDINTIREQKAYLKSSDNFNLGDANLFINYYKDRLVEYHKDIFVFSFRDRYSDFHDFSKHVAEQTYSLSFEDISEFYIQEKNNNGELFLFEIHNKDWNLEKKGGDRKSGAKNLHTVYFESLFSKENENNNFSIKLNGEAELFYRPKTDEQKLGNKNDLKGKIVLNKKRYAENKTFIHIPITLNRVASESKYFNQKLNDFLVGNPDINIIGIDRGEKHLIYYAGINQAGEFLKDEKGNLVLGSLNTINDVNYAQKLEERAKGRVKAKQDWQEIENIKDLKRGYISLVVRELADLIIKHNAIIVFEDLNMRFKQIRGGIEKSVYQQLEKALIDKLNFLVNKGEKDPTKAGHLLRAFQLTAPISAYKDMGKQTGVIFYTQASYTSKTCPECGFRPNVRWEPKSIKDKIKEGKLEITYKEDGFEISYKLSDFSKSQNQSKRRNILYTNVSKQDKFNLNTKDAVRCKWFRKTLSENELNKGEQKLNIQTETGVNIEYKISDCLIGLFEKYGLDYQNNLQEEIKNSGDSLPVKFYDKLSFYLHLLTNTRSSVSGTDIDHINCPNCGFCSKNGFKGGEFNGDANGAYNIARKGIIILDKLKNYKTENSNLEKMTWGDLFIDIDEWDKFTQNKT
Test: cell_activity; PAM not stated; E. coli depletion, 30 C
Procedure, shortened: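 E. coli carrying arabinose-induced (0.2%) BMC nuclease, grown at 30° C., made electrocompetent and electroporated with 50-100 ng plasmid carrying gRNA against malQ. Transformants plated on selective M9-glucose agar with kanamycin/ampicillin (± nourseothricin), and growth scored after 48 h at 30° C.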

B1: malQ gRNA (BMC stem-loop + 24 nt spacer) ; malQ protospacer (ssRNA ; dsDNA)
RNA: GAUUUCUACUAUUGUAGAUGUGGCGGUACGUUGAUGCAUCGCG
DNA 1: GTGGCGGTACGTTGATGCATCGCG
DNA 2: CGCGATGCATCAACGTACCGCCAC
**Q.** With B1 as the binder, how does the activity read?
**A.** Its activity is greater than 99.9 % colony reduction.
